# Test results reported in patent US20020127543A1, “Methods and compositions utilizing hepatitis C virus molecules” (priority 1999, published 2002).
# Read-outs that look alike come from different tables or passages of the source.
# Assays:
# HCV mIRES RNA = assay: FRET titration of fluorescein-labelled RNA with Dabsyl-labelled peptides; type: binding; details: HCV loopIII RNA 10 nM, pH7.4, 110 mM KCl
# From the text: (§1) Oligoribonucleotides with a fluorescein attached to the 5′ end of the molecule (shown in FIG. 6a) were synthesised using conventional oligoribonucleotide techniques. A 19 mer (FIG. 6b) was used for control purposes
# (§2) Fluoresein-labeled RNA was titrated with Dabsyl-labelled peptides. The donor (fluorescein) fluoresence was excited at 490 nm. In the presence of peptide, binding leads to a quenching of fluorescence by the non-fluorescent acceptor dye Dabsyl. The quenching curves allow the determination of binding affinities. Fluorescein-labelled RNA containing the mIRES was titrated with various peptides.
# (§3) FIG. 7 illustrates binding curves for RNA containing the mIRES titrated with various peptides. Experimental conditions: Fam-labelled RNA (10 nM) was titrated with Dabsyl-labelled peptide in 50 mM Tris/Cl, pH7.4, 110 mM KCl, 5ug/ml BSA, 0.01% Triton X-100, 1%DMSO. Fluorescence (excitation 490 nm/emission at 535 nm) was determined in 96-well plates using a Fluorescence plate reader. The assay volume was 100 μl.
# (§4) Dissociation constants were determined by fitting a binding isotherm (1-site-binding) to the titration data using the equation
# (§5) Y=((Fmax−Fmin)−((Fmax−Fmin)*c/(Kd+c)))+Fmin
# 19mer control RNA = assay: FRET titration of fluorescein-labelled control RNA with Dabsyl-labelled peptides; type: binding
# From the text: as §1, §2, §3, §4, §5
# [1] = test system: Dabsyl peptide with KKKKK core (synthetic); details: FRET quenching
# [2] = test system: Dabsyl peptide with KKKQR core (synthetic); details: FRET quenching
# [3] = test system: Dabsyl peptide with KKQKR core (synthetic); details: FRET quenching
# [4] = test system: Dabsyl peptide with KKQRR core (synthetic); details: FRET quenching
# [5] = test system: Dabsyl peptide with KKRQR core (synthetic); details: FRET quenching
# [6] = test system: Dabsyl peptide with QQQQQ core (synthetic); details: FRET quenching, R2 N/A
# [7] = test system: Dabsyl peptide with RRRRR core (synthetic); details: FRET quenching, 50 mM Tris pH 7.4, 110 mM KCl
# [8] = test system: eIF3 (eukaryotic initiation factor 3 complex); assay: EMSA
# IIIB-Dabcyl RNA = assay: Inhibition of paromomycin-TAMRA binding to IIIB-Dabcyl RNA (FRET); parameters: species or system HCV
# Method: Measurements were made in a 2 mL cuvette. Increasing amounts of IIIB-Dabcyl RNA (corresponding to the amounts shown in the figure) were added to a solution of 10 nM paromomycin-TAMRA in the presence of 50 mM Tris.HCl pH7.5, 80 mM KCl. For each titration point emission spectra were acquired using a fixed wavelength of 552 nm with the excitation slits set to 5 nm and the emission slits set to 10 nm. Emission spectra were acquired over the range 570-600 nm. Two binding curves are presented, the first in the absence of a test molecule (FIG. 8a) and the second in the presence of 10 μM neomycin (FIG. 8b).
# [9] = relative to DIII, no complex formed
substance,measurement,setting,value
RRRRR,Kd,HCV mIRES RNA,30 ± 10 nM
same,Kd,19mer control RNA,194 nM
19-mer control RNA (FIG. 6b),Kd,[1]; R2 N/A,> 500 nM
same,Kd,[2]; R2 N/A,> 500 nM
same,Kd,[3]; R2 N/A,> 500 nM
same,Kd,[4]; R2 N/A,> 500 nM
same,Kd,[5]; R2 N/A,> 500 nM
same,Kd,[6],> 500 nM
same,Kd,[7],194 nM
HCV IRES Domain II (DII),binding signal,[8]; [9],0.5%
KKKKK,Kd,HCV mIRES RNA,49 nM
same,Kd,19mer control RNA,> 500 nM
HCV IRES Domain III (DIII),binding signal,"[8]; reference, 60 mM KCl, 3 mM MgCl2, 200 nM tRNA, on ice, relative affinity by unlabelled RNA competition",100%
"HCV mIRES RNA (loop III, FIG. 6a)",Kd,"[1]; 50 mM Tris pH 7.4, 110 mM KCl",49 nM
same,Kd,"[2]; 50 mM Tris pH 7.4, 110 mM KCl",90 nM
same,Kd,"[3]; 50 mM Tris pH 7.4, 110 mM KCl",> 500 nM
same,Kd,"[4]; 50 mM Tris pH 7.4, 110 mM KCl",41 nM
same,Kd,"[5]; 50 mM Tris pH 7.4, 110 mM KCl",104 nM
same,Kd,"[6]; 50 mM Tris pH 7.4, 110 mM KCl",> 500 nM
same,Kd,"[7]; ±10, 10 nM RNA",30 nM
Neomycin,Ki,"IIIB-Dabcyl RNA; 10 nM paromomycin-TAMRA, 10 μM neomycin",520 nM
same,Inhibition of paromomycin-TAMRA binding to IIIB-Dabcyl RNA (in words),IIIB-Dabcyl RNA; 10 uM,inhibits paromomycin-TAMRA binding to IIIB-Dabcyl RNA
KKQKR,Kd,HCV mIRES RNA,> 500 nM
same,Kd,19mer control RNA,> 500 nM
tRNA,binding signal,[8]; [9],0.1%
KKKQR,Kd,HCV mIRES RNA,90 nM
same,Kd,19mer control RNA,> 500 nM
KKQRR,Kd,HCV mIRES RNA,41 nM
same,Kd,19mer control RNA,> 500 nM
QQQQQ,Kd,HCV mIRES RNA,> 500 nM
same,Kd,19mer control RNA,> 500 nM
KKRQR,Kd,HCV mIRES RNA,104 nM
same,Kd,19mer control RNA,> 500 nM
